From paper PMC12501296, “P4HA2 interacted with ATAD3A to modulate PINK1/parkin-dependent mitophagy and ^125I brachytherapy sensitization in esophageal carcinoma” (Cell Death & Disease, 2025)

Target: T1, ATAD3A-HA, in vitro translated (UniProt Q9NVI7-2 1-586)
T1 construct: ATAD3A (ATPase family AAA domain-containing 3A); the truncation map of the ATAD3A-HA plasmids ends at residue 586, which fits the 586-residue isoform; read as C-terminal; also called ATAD3A-HA (pcDNA3.1 vector); source: in vitro translated (TnT quick coupled transcription/translation, Promega), then purified
T1 sequence (looked up): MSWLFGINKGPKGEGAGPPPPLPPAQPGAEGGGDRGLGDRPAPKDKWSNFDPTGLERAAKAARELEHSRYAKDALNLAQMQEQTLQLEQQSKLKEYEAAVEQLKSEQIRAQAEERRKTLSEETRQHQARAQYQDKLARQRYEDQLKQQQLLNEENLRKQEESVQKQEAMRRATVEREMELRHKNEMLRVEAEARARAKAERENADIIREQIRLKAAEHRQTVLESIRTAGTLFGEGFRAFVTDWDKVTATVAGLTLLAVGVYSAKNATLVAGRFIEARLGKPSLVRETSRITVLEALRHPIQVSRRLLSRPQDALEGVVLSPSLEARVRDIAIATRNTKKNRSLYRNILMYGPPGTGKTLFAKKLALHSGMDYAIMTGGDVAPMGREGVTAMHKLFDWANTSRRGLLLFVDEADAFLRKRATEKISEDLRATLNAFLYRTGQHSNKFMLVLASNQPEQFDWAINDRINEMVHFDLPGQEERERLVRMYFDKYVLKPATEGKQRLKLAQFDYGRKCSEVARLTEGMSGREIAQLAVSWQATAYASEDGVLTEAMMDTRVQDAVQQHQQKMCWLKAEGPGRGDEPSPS
Assay: co-IP; P4HA2-FLAG and ATAD3A-HA made by TnT quick coupled transcription/translation (30 °C, 90 min), purified, then co-IP
Details: both partners purified

binding result: binds
B1: P4HA2-FLAG, in vitro translated (natural protein, UniProt O15460 1-535, looked up)
chain: MKLWVSALLMAWFGVLSCVQAEFFTSIGHMTDLIYAEKELVQSLKEYILVEEAKLSKIKSWANKMEALTSKSAADAEGYLAHPVNAYKLVKRLNTDWPALEDLVLQDSAAGFIANLSVQRQFFPTDEDEIGAAKALMRLQDTYRLDPGTISRGELPGTKYQAMLSVDDCFGMGRSAYNEGDYYHTVLWMEQVLKQLDAGEEATTTKSQVLDYLSYAVFQLGDLHRALELTRRLLSLDPSHERAGGNLRYFEQLLEEEREKTLTNQTEAELATPEGIYERPVDYLPERDVYESLCRGEGVKLTPRRQKRLFCRYHHGNRAPQLLIAPFKEEDEWDSPHIVRYYDVMSDEEIERIKEIAKPKLARATVRDPKTGVLTVASYRVSKSSWLEEDDDPVVARVNRRMQHITGLTVKTAELLQVANYGVGGQYEPHFDFSRNDERDTFKHLGTGNRVATFLNYMSDVEAGGATVFPDLGAAIWPKKGTAVFWYNLLRSGEGDYRTRHAACPVLVGCKWVSNKWFHERGQEFLRPCGSTEVD
notes: P4HA2 (Prolyl-4-Hydroxylase Alpha Subunit 2); read as C-terminal; also called P4HA2-FLAG (pcDNA3.1 vector); source: in vitro translated (TnT quick coupled transcription/translation, Promega), then purified
